Experimental data: publication PMC6396743, “Two membrane-bound transcription factors regulate expression of various type-IV-pili surface structures in Sulfolobus acidocaldarius”

T1: ArnR1 (Sulfolobus acidocaldarius, UniProt Q4J9L2 1-269)
T1 sequence: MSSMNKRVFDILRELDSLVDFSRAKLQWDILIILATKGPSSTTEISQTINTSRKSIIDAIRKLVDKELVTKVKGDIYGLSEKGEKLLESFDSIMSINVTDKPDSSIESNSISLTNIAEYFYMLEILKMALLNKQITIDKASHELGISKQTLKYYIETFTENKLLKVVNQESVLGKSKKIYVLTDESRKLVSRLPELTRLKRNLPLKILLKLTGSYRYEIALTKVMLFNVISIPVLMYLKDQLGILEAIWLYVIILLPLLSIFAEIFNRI


Target: T1, ArnR1
Test: MST; MST: 2.5 nM labeled dsDNA, 0.156-18 uM protein, 24 C, 10 min incubation; DNA annealed in 20 mM Tris/HCl pH 8, 200 mM NaCl, 0.05% DDM; protein in 20 mM Tris/HCl
Settings: protein: recombinant, tags: N-terminal His10
[1] = label: 5' Alexa Fluor 647, blunt

Binder	binding result [1]	further results
pflaB ArnR box-1 (dsDNA) DNA 1: ATTGTGATTTTTGGTCGAAG DNA 2: CTTCGACCAAAAATCACAAT	no binding	–
pflaB ArnR box-2 (dsDNA) DNA 1: AACGTCGATCAGCAGTCGAA DNA 2: TTTCGACTGCTGATCGACGTT	–	binding result (label: 5' Alexa Fluor 647, 5' overhang 1 nt on strand 2 as printed): no binding
pupsX (dsDNA) DNA 1: TCTCCCATATTACTATTGCCTATCTCGTTAATAGTATTTTC DNA 2: GAAAATACTATTAACGAGATAGGCAATAGTAATATGGGAGA	–	binding result (label: Alexa Fluor 647, blunt): no binding
paapF (dsDNA) DNA 1: GTCTAAAGCCATAAAGATGAGCTTATTTTCATAGATTTAAGT DNA 2: ACTTAAATCTATGAAAATAAGCTCATCTTTATGGCTTTAGAC	no binding	–
pflaB41 (dsDNA) DNA 1: ACGTCGATCAGCAGTCGAAAAATTGTGATTTTTGGTCGAAG DNA 2: CTTCGACCAAAAATCACAATTTTTCGACTGCTGATCGACGT	–	Kd [1]: 3.31 µM
pSaci_2122 (dsDNA) DNA 1: ATAATTATTACTCAGCGTTTATAACGTTTAACATGTTAAAA DNA 2: TTTTAACATGTTAAACGTTATAAACGCTGAGTAATAATTAT	no binding	–
